This series is described as follows: amyloid nucleation score (Sup35N fusion, yeast selection) (log enrichment); library NNK2; higher = more nucleation; inactive = no reads after selection. In a few lines: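 Plasmid inserts were Illumina-sequenced at input and output from psi-negative yeast expressing Sup35N fused to peptides of 20 random codons. The yeast were induced with 100 μM copper sulfate for 24 hours and grown 7 days at 30°C on medium lacking adenine and uracil, and sequences with under 100 input reads were excluded. Nucleation score is the DiMSum log enrichment of output over input reads, centred on the mode score of non-aggregating sequences.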

This passage reports amyloid nucleation score results from the supplement of paper PMC12042874.

± gives the uncertainty stated by the source.

Take QYVSMKMNLRTR: the amyloid nucleation score was -0.403 ± 1.

In turn, MHWFPPYDWK had an amyloid nucleation score of 0.266 ± 1.

Substance DGEYPHQYSLEVLLLRLRH had an amyloid nucleation score of 5.071 ± 0.049.

Take GKFYQMENSV: the amyloid nucleation score was -1.27 ± 0.78.

In the case of CVLHEPLYS, the amyloid nucleation score was -0.432 ± 0.3.

EYHSSWVISAPVYLQSATAW: the amyloid nucleation score came to 5.23 ± 0.085.

AFDIFFNVVWRPFVHSCLAR registered an amyloid nucleation score of 0.041 ± 0.56.

TYIFSHTAGYNFG: the amyloid nucleation score result is “inactive”.

Take HIGHSWIGSALDTLAYEGYY: the amyloid nucleation score was -0.49 ± 0.76.

Consider YGLALFTRI, for which the amyloid nucleation score is -0.347 ± 0.44.

Turning to SVFFGFWDTHAAAYMHGVFM, the amyloid nucleation score result was “inactive”.

Regarding LDPKIRWLWK, the amyloid nucleation score came out at 0.204 ± 0.6.

On to FLACRSLGKPRMFDRSLRYV, for which the amyloid nucleation score amounted to 0.185 ± 0.44.

Take EWVNVASVYGDSKKRYGWNA: the amyloid nucleation score was -0.239 ± 0.61.

With DYSVEGHLRMLLNKKRVGVE, the amyloid nucleation score was -1.01 ± 0.76.

ALSSKMMGYDRF: the amyloid nucleation score is -0.494 ± 0.64.

Turning to FLTLPFLPAHLKKPHKSLLR, the amyloid nucleation score is -0.083 ± 0.56.

For GVLKVLLLAPISFTVVCHSS, the amyloid nucleation score was determined as 3.65 ± 0.055.

On to WVIDACLNRPLSERSYYRNK, for which the amyloid nucleation score is 0.767 ± 0.58.

In the case of LQRYRFSNACI, the amyloid nucleation score entry was “inactive”.

Regarding VQLWYILITKMVR, the amyloid nucleation score is -1.02 ± 1.

On to ELQRKNTGLKVDLKAHIHRF, for which the amyloid nucleation score came out at 5.37 ± 0.063.

As to HIEFDRWAPHLVDLPTGPMK, the amyloid nucleation score entry was “inactive”.

With LCEISRASPQGGDRDRAMGK, the amyloid nucleation score was -0.018 ± 0.55.

As for CRCVR, the amyloid nucleation score is 3.38 ± 0.077.

On to SIFMDRCDWPSCSFGRIHEV, for which the amyloid nucleation score is -0.521 ± 0.35.

Take FWKSWHTPRALAKNSPSAFL: the amyloid nucleation score is -0.779 ± 0.64.

Take LLTGQALFGRASY: the amyloid nucleation score is 0.122 ± 0.37.

Consider GKTISNFLGMTTSCEFGR, for which the amyloid nucleation score is -0.81 ± 1.

In turn, YVMREDLGPGSQADPTSGRS had an amyloid nucleation score of 0.912 ± 0.27.

Regarding HIKLYSDYTCKLMPSLTWQR, the amyloid nucleation score is 4.8 ± 0.08.

As to TWKYDRMVGKIVGLALRVVT, the amyloid nucleation score was 0.643 ± 0.43.

Take NVKNKKSVSLPYSKLMRGRE: the amyloid nucleation score is -0.17 ± 0.65.

Turning to LLCGRYGMECFTRA, the amyloid nucleation score entry was “inactive”.

For the substance FYCMKQLLNNIRWLGYSVCR, the amyloid nucleation score was -1.28 ± 1.1.

Take SYCKPTVIACVMLSCQQ: the amyloid nucleation score came out at 8.866 ± 0.067.

As to LEVTIMTRFVLMLMTLCFPS, the amyloid nucleation score is -0.066 ± 0.36.

As to GYSFRYTFCSHSGDVAVVSK, the amyloid nucleation score was -0.739 ± 1.

Consider LIMRIVWGGLQDQGSVRSSR, for which the amyloid nucleation score came to 0.855 ± 0.35.

The substance SVVFKNSVWYSITNHNIMSL yielded an amyloid nucleation score of 1.57 ± 0.29.

In the case of SAYLPSHLYTAFEPHGLVST, the amyloid nucleation score came out at 0.933 ± 0.2.

KNTVKDGWRMMMDGCMNTHW registered an amyloid nucleation score of 0.259 ± 0.15.

Regarding NVLNGISKLMRHFALKYASM, the amyloid nucleation score is 0.528 ± 0.4.

The substance NIRAKNRDFRLGLANRKETA showed an amyloid nucleation score of 1.15 ± 0.27.

For the substance TVWDLPLVAFCKHGTDHLLS, the amyloid nucleation score is -0.121 ± 1.1.

Regarding GRFLLSLATVSGLCTSRLEI, the amyloid nucleation score was -0.169 ± 0.39.

On to IKDKSHLRRIVLVTEYTRRD, for which the amyloid nucleation score worked out at 0.179 ± 0.34.

On to LGCHLVGLVNRGKNGGRISL, for which the amyloid nucleation score worked out at 0.315 ± 0.74.

As for CVKKEIMLFAFDALKSLLGR, the amyloid nucleation score was -0.742 ± 1.1.

As to LAAGWGVLHELL, the amyloid nucleation score result is “inactive”.

For SPQRFDLGYGVYVCDTPK, the amyloid nucleation score was -0.231 ± 0.38.

In the case of TSPSKLFRDLFYHPRSKPVA, the amyloid nucleation score was 0.708 ± 0.41.

As for SKPGNIKWYSGFSKRQREAA, the amyloid nucleation score entry was “inactive”.

Substance VLSRFLASKRNCPVPDSLG had an amyloid nucleation score of 0.093 ± 0.29.

SISGMRWSSNHQVRSVLGAT showed an amyloid nucleation score of 1.17 ± 0.33.

As to LSHILMI, the amyloid nucleation score result is “inactive”.

For TWRIYLTQRAVTSKMYLRAS, the amyloid nucleation score amounted to 4.74 ± 0.07.

LAKGPSQDYGAVPHKVMFHS: the amyloid nucleation score came out at 0.961 ± 0.58.

As to KFGVGSLLTSLGYATRSCYL, the amyloid nucleation score was -0.771 ± 0.25.

Consider SYCSLVFLTDISSYIGFQCV, for which the amyloid nucleation score was 5.16 ± 0.078.

NARFSFKTLRYGGVLRKYPL: the amyloid nucleation score was -0.363 ± 1.1.

Regarding LELWFGDWNRVMYSCSVDWG, the amyloid nucleation score was -0.096 ± 0.5.

In the case of TSHSFVLVY, the amyloid nucleation score is -0.705 ± 0.33.

For YRASHCQSFQ, the amyloid nucleation score was -1.2 ± 1.1.

In the case of MASSFQFSDTGSELTSREAR, the amyloid nucleation score was -0.237 ± 0.79.

On to IVPRIKSAMLLKF, for which the amyloid nucleation score was -0.301 ± 0.21.

In the case of HFKFYRNNYMTVIVHKACDV, the amyloid nucleation score was 8.665 ± 0.083.

Substance GFKDCV registered an amyloid nucleation score of 0.263 ± 0.22.

Regarding LMRRHRA, the amyloid nucleation score came out at 0.954 ± 0.25.

In the case of RFDQGVGTLWHVSLVTE, the amyloid nucleation score was -0.107 ± 1.

The substance MIGGDGPRDV had an amyloid nucleation score of 0.745 ± 0.38.

As to WALLGFLDYKLFLTAEVFSA, the amyloid nucleation score was -0.498 ± 1.1.

In the case of ISTFSRVHLSKVYLRDSTIV, the amyloid nucleation score is -1.92 ± 1.1.

Regarding LSSTRDR, the amyloid nucleation score is -1.24 ± 0.48.

In turn, CKYVYFRPTRASSSWHVIFL gave an amyloid nucleation score of 2.93 ± 0.076.

SKLYDVCVHRVWRTWGFQEN: the amyloid nucleation score was 0.027 ± 1.

Consider KEEVRSLFIGTFPKIFFGLH, for which the amyloid nucleation score was 0.251 ± 0.46.

Take SMGLDFPWMSRDTGNFGTEI: the amyloid nucleation score is -0.337 ± 0.4.

Consider VPLHDARTRM, for which the amyloid nucleation score is 0.637 ± 0.24.

With WFLCWYSTPTLGCCKKEGSA, the amyloid nucleation score worked out at 0.056 ± 0.33.

On to HRYLPSG, for which the amyloid nucleation score is 0.224 ± 0.8.

As for IWLVQGTAFPGMLSGQGWLL, the amyloid nucleation score was found to be 0.147 ± 0.76.

On to SGSIKHMNLVMV, for which the amyloid nucleation score was -0.027 ± 0.2.

As for SLGRGPYDRNMIVFMMRELT, the amyloid nucleation score was -0.682 ± 0.64.

In the case of IGRMGIQKWS, the amyloid nucleation score was 0.698 ± 0.47.

As to YMTTNRKPLDFYQHVYLMKV, the amyloid nucleation score entry was “inactive”.

Regarding FLMSVTYCKGFGRTEECACC, the amyloid nucleation score was -0.28 ± 0.33.

Regarding FYNYRNDVIFVFLAHMPANY, the amyloid nucleation score was found to be 2.43 ± 0.13.

The substance IKTGSGVARVGYFLC showed an amyloid nucleation score of 0.42 ± 0.47.

As to GGNFYGGEYDMGGGSIRHYG, the amyloid nucleation score entry is “inactive”.

Consider YNKNSKFLGRFDCSLFI, for which the amyloid nucleation score was -1.04 ± 1.1.

In the case of LLINDKCPYERMAGQWLFGS, the amyloid nucleation score stood at 0.268 ± 0.65.

For SCFIFSCYDTSLQMLVFAVG, the amyloid nucleation score is -0.591 ± 0.63.

YDKFPRNVGESYEHRCSWSE registered an amyloid nucleation score of 0.458 ± 0.8.

WLFSMRGGDAPKSKRRSIHH showed an amyloid nucleation score of 4.96 ± 0.1.

The substance SEVILYGMHSNINLPI registered an amyloid nucleation score of 0.063 ± 1.1.

Take TMLYKWKVGNTFSHVLCLLL: the amyloid nucleation score is -0.14 ± 1.

As for RIWSFNGQTFVSNLSVSSVS, the amyloid nucleation score was -0.773 ± 0.76.

Take EGVKF: the amyloid nucleation score worked out at 0.436 ± 0.8.

Turning to LDLICMDLWFWTNTS, the amyloid nucleation score was -0.006 ± 0.4.

YKRHVGLRRNTLRQGYLLWF: the amyloid nucleation score is -0.547 ± 1.1.

As to SENGRLLLGLFGKRWDVNDV, the amyloid nucleation score was -0.097 ± 0.79.

Turning to PADSTMGK, the amyloid nucleation score is -0.856 ± 0.29.

Regarding NMYFCLFFRIVLLLGNDKIA, the amyloid nucleation score was -1.06 ± 0.6.

On to VDNCDLGIS, for which the amyloid nucleation score was -0.861 ± 1.1.

Take ATSTITNYGLPNRPCVSYMF: the amyloid nucleation score was -0.043 ± 0.32.

As for VLDSWRR, the amyloid nucleation score was -0.963 ± 1.1.

For the substance MMHELHPRIELCG, the amyloid nucleation score turned out to be 6.12 ± 0.062.

On to EMYVNFMHVDGDGVPQHDAW, for which the amyloid nucleation score was 0.929 ± 0.37.

In turn, EQMGCTGLVFNVCEGFEDVM gave an amyloid nucleation score of 3.44 ± 0.059.

Substance DEMVDAFYYSAM yielded an amyloid nucleation score of 0.35 ± 0.8.

For FLNMTIRVLAWFVYTI, the amyloid nucleation score result is “inactive”.

Substance VIRTPILGYWSCIGTFNVFW came in with an amyloid nucleation score of 8.167 ± 0.044.

Regarding AFKKYQS, the amyloid nucleation score was -0.114 ± 0.74.

Regarding DGGNDWRTKYSGTPVVWGTV, the amyloid nucleation score was determined as 1.73 ± 0.13.

Take NKLYFVGKWNGFVSSVCSLV: the amyloid nucleation score is -0.942 ± 0.41.

For the substance QVSSTST, the amyloid nucleation score stood at 0.592 ± 0.35.

KGPTSLLYLVMCFMVLQQLR: the amyloid nucleation score was -0.447 ± 0.78.

On to DVKIVYSKTDRWRMGRSPES, for which the amyloid nucleation score came out at 1.55 ± 0.2.

Turning to LTCVSAR, the amyloid nucleation score stood at 1.2 ± 0.16.

On to YWCLA, for which the amyloid nucleation score was -0.737 ± 0.45.

In turn, SGGRYTEATWECG returned an amyloid nucleation score of 0.316 ± 0.65.

Take VNLITGIMYI: the amyloid nucleation score entry was “inactive”.

In turn, WVSMVVCMVSYNSYFE yielded an amyloid nucleation score of 5.48 ± 0.062.

MMDFYRLDLDRTVVVRNRYL returned an amyloid nucleation score of 0.389 ± 0.74.

Take LLGPYKAHTQKYCWSSYV: the amyloid nucleation score is -0.287 ± 0.56.

Take WDSSPGISVVSIRLEQ: the amyloid nucleation score worked out at 5.431 ± 0.036.

In the case of YNVTTMYNYYLICISLATMY, the amyloid nucleation score worked out at 7.09 ± 0.08.

The substance CMEKFTLELTVIIRHSNQLG gave an amyloid nucleation score of 0.225 ± 0.31.

Consider FLNWCISKLR, for which the amyloid nucleation score was -0.735 ± 1.

Regarding HVRYYGTHSTVNDNYIRNVR, the amyloid nucleation score stood at 0.425 ± 0.31.

Take RQQIFYSRDVQVNVGGN: the amyloid nucleation score result was “inactive”.

For SSVSRLR, the amyloid nucleation score is -0.277 ± 0.74.

RGLRMYERGSVTWSFDFMEG displayed an amyloid nucleation score of 5.44 ± 0.077.

Take FVYVVEGVWEKGIKFFMIFK: the amyloid nucleation score is -0.913 ± 1.1.

For the substance KSKRMVTMHKMNENTGLLGD, the amyloid nucleation score is 0.543 ± 0.5.

MLFAVDLVYGPDPLVNELTW had an amyloid nucleation score of 1.03 ± 0.4.

Substance AVYFYRALDVVMCAFVRKGE displayed an amyloid nucleation score of 6.01 ± 0.068.

Consider CVFPRFYIHDFSTLGTMYTL, for which the amyloid nucleation score was found to be 4.24 ± 0.12.
